Here are results for 1 protein from patent publication US20100203582.

This series addresses T1, peptide SAVLQMGFRK, Substrate (7).
T1 chain: SAVLQMGFRK

B1: wild-type severe acute respiratory syndrome-associated coronavirus 3C-like protease (SARS-CoV 3CL^pro) (protein)
chain: SGFRKMAFPSGKVEGCMVQVTCGTTTLNGLWLDDTVYCPRHVICTAEDMLNPNYEDLLIRKSNHSFLVQAGNVQLRVIGHSMQNCLLRLKVDTSNPKTPKYKFVRIQPGQTFSVLACYNGSPSGVYQCAMRPNHTIKGSFLNGSCGSVGFNIDYDCVSFCYMHHMELPTGVHAGTDLEGKFYGPFVDRQTAQAAGTDTTITLNVLAWLYAAVINGDRWFLNRFTTTLNDFNLVAMKYNYEPLTQDHVDILGPLSAQTGIAVLDMCAALKELLQNGMNGRTILGSTILEDEFTPFDVVRQCSGVTFQ
For B1, the Km entry is “Km is 76.6±3.5 µM”, the kcat result is “kcat is 1.6±0.2 min^-1” and the kcat/Km entry was “kcat/Km=0.02 µM^-1min^-1”.
